# Test: yeast display, Sf9 membrane polyspecificity reagent, FACS + sequencing; frameworks hold sequencing errors
# Method in brief: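 In a synthetic yeast display library (Saccharomyces cerevisiae BJ5465), nanobody expression was induced with galactose for 36–48 hours. FACS gates were set low and high (top ~1%) using anti-HA fluorescence for expression and streptavidin fluorescence for binding of the Sf9 membrane reagent. Each polyreactivity label is drawn from the gate of origin.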
row,Sequence,polyreactivity (PSR sort gate)
1,QVQLVESGGGLVQAGGSLRISCAASGSTLRSNAMGWYRQAPGKERELVASISSGGSTSYADSVKGRFPISRDNAKNTVYFQMNSLKPEDTAVLYCAADGTLTLYRYILDYWGQGTQVTVSS,low polyreactivity
2,QVQLVDSGGGLVQAGGSLRLSCAASGSIFVGNAMGWYRQAPGKERELVAAISWRGGRTYYADSVKGRFTISRDNAKYTVYLQMNSLKPEDTAVYYCATVKARDYGYWGQGTQVTVSS,high polyreactivity
3,QVHHVESGGGLVQAGGSLRLSCAASGGTFRVYTMGWYRQAPAKVRELVAAITRNGGSTYYADSVKGRFTISRDNAKNSVYVQMNSLKPDDTAVYYCAARGGVPYSHAYDYWGQGTQVTVSS,low polyreactivity
4,QVQLVESGGGLVQAGGSQRLSCAASGRIFRYYAMGWYRQAPGKERELVAAITWSGGSTYYADSVKGRFTISRDNEKNTVYLQMNSLKPDDTAVYYCTAISYQPFHGDYWGQGTQVTVSS,low polyreactivity
5,QVQLVESGGGLVQAGGSLRLRCGASGRTFSSNAMGWYRQAPGKERELVAVITRRGGSTYYADSVKGLFTISRDNAMNNVYLQMNSLKPEDTAVYYCATVAPPQRSGRRSAGEKYYYWGQGTQVTVSS,high polyreactivity
6,QVQLVESWGGLVQAGGSLRLSCSAYGYTFTLTPMGWSRQAPGKERELVAAISRSGGSTYYADSVKGRFTISRDNAKNTVYLQMISLKPEDTAVYYCDADGYSGYDYWGQGTLVTVSS,low polyreactivity
7,QDQLVESVGGLVQAGGSLRLSCAASAITFGNYAMGWYRQAPGKERELVAGISWSGSSTYYADSVKGRFTISRDNSKNTVYLQMNSLKPEDTAVYYCNAVQPARFVGGFGTGVDYWGQGTQVTVSS,high polyreactivity
8,QVQLVESGGGLVQAGGSLRLSSAASGSTFRYNALGWYRQAPGKERELVAAISSSGGSTRYADSVKGRFTISRDNEKYTDYLQMNSLKPEDTAVYYCDVRFYDWRYYYWGQGTQVTVSS,high polyreactivity
9,QVQLVESGGGLVQAGGSLRLSCAASGRTFWGYAMGWYRQAPGKERELVAAISSGGDTTYADSVKGRFTISRDNAKNTVYLQMNSLKPEDTAVYYCAADRWIPVYILGADGYDYWGQGTQVTVSS,low polyreactivity
10,QVQLVESGGGLVQAGGSLRLSCAASGSTFVYYTMGWYRQAPGKERELVATISSRGGSTYYADSVKGRFTISRDNAKNTVYLQMNSLKPEDTAVYYCAKRGPFYGNYDYWGQGTQVTVSS,high polyreactivity
11,QVQLVETGGGLVQAGGSLRLSCAASGNMFVTYDMGWYRKAPGKERELVASISWNGGSTNYADSVKGRFTISRDNAKNTVYLQMNSLKPEDTAVYYCAVDYARDKGYPYGYWGQGTQVTVSS,low polyreactivity
12,QVQLVESAAGLVQAGGSLRLSCAPSGSTFYLYDMGWYRQAPGKEREFVATITSGTSTTYADSVKGRFTISRDNAKNTVYLQMNSLKPEDTAVYYCNATDVGIITVGYGHGGYYWGQGTQVTVSS,low polyreactivity
13,QVQLVESGGGLVQAGGSLRLSCADSGSIFLRYAMGWYRQAPGKERELVAAISCRGGSTYYADSVKGRFTISRDNAKNTVYLQMNSQKPEDTAVYYCAAYRGRSLEYDYWGQGTQVNVSS,high polyreactivity
14,QVQLVESGGGLVQAGGSLRLSCAASGFIFASYTMGRTRQAPGKERELVAAISRAGSTYYADSVKGRFTISRDNAKNTVYLQMNSLKPEDTAVYYCNAVSWRTSRYDYWGQGTQVTVSS,high polyreactivity
15,QVQLVESGGGLVQAGGSLRLSCAASGRTFIPYAMGWYRQAPGKERELVATISRSGGSTYYADSVKGRFTISRDNAKNTVYLQMNSLKPEDSAVYYCAAQWVRKSGREGYWGQGTQVTVSS,high polyreactivity
16,QVQLVESGGGLVQAGGSLRLSCAASGRIFDNYVMGWYRQAPGKERELVAAISSGGGTYYADSVKGRFTISRDNAKNTVYLQMNSLKPEDTAVYYCAKRRVYDRSFGRYDYWGQGTQVTVSS,low polyreactivity
17,QVQLVESGGGLVQAGGSLRLSCAASGFTFRRNAMGWYRQAPGKERELVAAITGRGTGTYYADSVKGRFTISRDNAKNTVYLQMNSLKPEDTAVYYCNADPVRYLFTRYDYWGQGTQVTVSS,high polyreactivity
18,KVQLVESGGGLVQAGGSLRLSCAASGLILRRYAMGWSRQAPGKEREFVARITWSGSRTYYADSVKGRFTISRDYGKNTVYLQMKSLKPEDSAFYYCAAVGRLARRDYWGQGTQVSVSS,high polyreactivity
19,QVQLVESGGGLVQAGGSLRLSCAASGSIFLYNAMGWYIQAPGKERELVAAISKSGGSTYYADSVKGRFTISRDNAKNTVYLQMNSLKPEDTAVYYCAADFLPQSYNWYDYWGQGTEVTVSS,low polyreactivity
20,QVQLVESGGGLVQAGGSLRLSCAASGSTFSNYALGWYSQAPGKERELVAAITSRGGRTYYADSVKGRFTISRDNAKNTVYLQMNSLKPEDTAVYYCAARVGSGRAIDLYYYWGQGTQVTVSS,low polyreactivity
21,QVQLVESGGGLVQAGGSLRLSCAASGSTFRVYAMGWYRQAPGKERELVAAITKSGGSTYYADSVKGRFTISRDNAKNTVYLQMNSLKPEDTEVYYCAADKSWTRYGFYWGQGTQLTVSS,high polyreactivity
22,QVQLVESGGGLVQARGSLRLSCAASGLTFITNTMGWYRQAPGKERELVAVISYSGTSTYYADSVKGRFTISRDYAKNTVYLQMNSLKPEDTAVYYWDASYLGSYRYSYYYWGQGTQVTVSS,high polyreactivity

row,Sequence,polyreactivity (PSR sort gate)
1,QVQLVETGGGLVQAGGSLRLSCAASGRTFARNAMGWYRQAPGKERELVAAISRRGGNTYYADSVKGRFTISRDNAKNTVYLQMNSLKPEDTAVYYCAVRWPSARIPVKLDYWGQGTQVTVSS,high polyreactivity
2,QVQLVESGGGLVHAGGSLRLSCAASGFIFAANAKGWYRQAPGKERELVAAINYRGSSTYYADSVKGRFTISRDNAKNTVYLQMNSLKPYDTAVYYCAAVSSIYSGYGYWGQGTQVTVSS,high polyreactivity
3,QVQHVESGGGLFQAGGSLRLSCAASGQNFRPYALGWDRQAPGKERELVAAIRWSDDSTYFAVSVKGRFTILRDNAKNTVYLQLNSLKPEDTAVYYCNARWWYPTYYYWGQGSQVTVSS,high polyreactivity
4,QVQLVESGGGLVQAGGSLRLSCAASGFTFRDYAMGWSRQAPGKERELVAAISRSGDSTYYADSVKGRFTISRDNAKNTVYLQMNSLKPEDTAVYYYAAKRRYTTYDYWGQGTQVTVSS,high polyreactivity
5,QVQLVESGGGLVQAGGSLRISCAASGLTSYSYAMGWYRQAPGKERELVAAITVNGGRTYYADSVKGRFTISRDNAKNTVYLQMNSLKPEDTAVYYCAAREVTGRPRSYYYWGQGTQVTVSS,low polyreactivity
6,QVQLVESGGGLVQAGGSLRLSCASSGRIFKKYAMGWYIQAPGKERELVATISSGGSTYYADSVKGRFTISRDNAKNTVYLQMNSLKREDTAGSYCARREYVRRDYFVTTYDYWGQGTQVTVSS,low polyreactivity
7,QVQLVESGGGLVQAGGSLRLSCAASGRIFHSYTMGWYRQAPGKERELVAAINWSGTRTYYADSVKGRFTISRDNAKNTVYLQMNSLKPEDTAVYYCNRVGVTRSYRYDYWGQGTQVTVSS,high polyreactivity
8,QVQLVESGGGLVQAGGSLRLSSAASGRIFRRNTMGWYRQAPGKERELVAAITSSGGSTYADSVKGRFTISRDNAKNTVYLQMNSLKPEDTAVYYCATYVAYHRGYRTYDHWGQGTQVTVSS,low polyreactivity
9,QVQLVESGGGLVQAGGSLRLSCAASGFIFYYYAMGWYRQAPGKERELVAAITQGGGSTYYADSVKGRFTISRDNAKNTVYLQMNSLKPEDTAVYYCAAVKRVYAHSRAFSSDFYYWGQGTQVTVSS,high polyreactivity
10,QVQHVETGGGLVQAGGSLRLSCAASGFIFSQYAMGWYRQAPGKERELVAAISSGSTYADSVKGRVTISRDNAKNTVYLQMNSLKPEDTAVYYCAVDYHQAWPSADYWFEYVYWGQGTQVTVSS,low polyreactivity
11,QVQLVESGGGLVQAGGSLRVSCAASGSIFYQYAMGWYRQAPGKERELVAAISTTGGRTYYADSVKGRFTISRDNAKNTVYLQMNSLKPEDTAVYYCAAYKYYGYDYWGQGTQVTVSS,high polyreactivity
12,QVQLVESWGGLVQAGGSLRLSCAASGRIFYVYDMGWYRQAPGKERELVAAISWSGGSTSYADSVKGRFTISRDKAMYTVYLQMNSLKPEDTAVNYCAATSAIGWGYDYWGQGTQVNVSS,low polyreactivity
13,QVQLVESGGGLVQAGGSLRLSCAASGFIFSYYAMGWYRQAPGKERELVAAINWSGGSTYYADSVKGRFTISRDNAKNTVFLQMNSLKPEDTAVYYCAAYSSWHPYDYWGQGTQVTVSS,high polyreactivity
14,HVQLVEAGGGLVQAGGSLRLSCAASGSTLQYYAMGWYRQAPGKERELVAAITSTGSRTYYADSVKGRFTISRDNAKNTVYLLMNSLKPADTAVYYCAADIYDGEYDYWGQGTQVTVSS,high polyreactivity
15,QVQLVESGGGLVQAGGSLRLSCAASGFIFYYNAMGWYRQAPGKERELVAGISRSAGSTYYADSVKGRFTISRDNAKNTVYLQMNSLKPEDTAVYYCNAEVYGGRYYVDMYYWGQGTQVTVSS,low polyreactivity
16,QVQLVESGGGLVQAGGSLRLSCAASGRIFGFNTMGWYRQAPGKERELVAAITSGGSTYADSVKGRFTISRDNAKNTVYLQMNSLKPEDTAVYYCNTRFYRPLWGYNYWGQGTQVTVSS,low polyreactivity
17,QVQLVESGGGLDQAGGSLRLSCAASGITFVRYAMGWYRQAPGKERELVAAISWSGGSTYYADSVKGRFTISRDNEKNTVYLQMNSLKPEDTAVYYCAAQHDVRYDYWGQGTQVTVSS,low polyreactivity
18,QVQLVESGGGLVQAGGSLRLSCAASGSTSTDYAMGWYRQAPGKERELVAAISYGGGSTYYADSVKGRFTISRDNAKNTVYLQMNSLKPEDTAVYYCAAVARFPKYRYYSWGQGTQVTVSS,high polyreactivity
19,QVQLVESGGGLVQAGGSLRLSCAASGFTIYANAMGWYRQAPGKERELVAAISSNGGSTYYADSVKGRFTISRDNAKNTVYLQMKSLKPEDTAVYSCADYFGSVLRSTIYDYWGQGTQVTVSS,low polyreactivity
20,QLQLVESGGGLVQAGGSLRLSCAASGSILSRYAMGWYRQAPGKEMELVAGITRGGSTNYADSVKGRFTISRDNAKNTVYLHMNSLKPEDTAVYYGAKASRRFLTLGYDYWGQGTQVTVSS,high polyreactivity
21,QVQLVESGGGLVQAGGSLRLSCAASGGTFYRYAMGWYRQAPGIERELVAAISGGRGRTYYADSVKGRFTISRDNAKNTVYLQMNSLKPVDTAVYYCSNKPYGAVSGSDYDYWGQGTQVTVSS,high polyreactivity

# Source: the nanobody polyreactivity screen of Harvey et al. (2022)
